In patent publication US20220118053A1 (ASCENDIS PHARMA GROWTH DISORDERS A S, published 2022):
Bridges are numbered along the chain shown (N, C = ends). Where no end group is shown, it is not given here.

Target: T1, NPR-B receptor (UniProt P20594 23-1047, limits assumed)
T1 sequence (looked up): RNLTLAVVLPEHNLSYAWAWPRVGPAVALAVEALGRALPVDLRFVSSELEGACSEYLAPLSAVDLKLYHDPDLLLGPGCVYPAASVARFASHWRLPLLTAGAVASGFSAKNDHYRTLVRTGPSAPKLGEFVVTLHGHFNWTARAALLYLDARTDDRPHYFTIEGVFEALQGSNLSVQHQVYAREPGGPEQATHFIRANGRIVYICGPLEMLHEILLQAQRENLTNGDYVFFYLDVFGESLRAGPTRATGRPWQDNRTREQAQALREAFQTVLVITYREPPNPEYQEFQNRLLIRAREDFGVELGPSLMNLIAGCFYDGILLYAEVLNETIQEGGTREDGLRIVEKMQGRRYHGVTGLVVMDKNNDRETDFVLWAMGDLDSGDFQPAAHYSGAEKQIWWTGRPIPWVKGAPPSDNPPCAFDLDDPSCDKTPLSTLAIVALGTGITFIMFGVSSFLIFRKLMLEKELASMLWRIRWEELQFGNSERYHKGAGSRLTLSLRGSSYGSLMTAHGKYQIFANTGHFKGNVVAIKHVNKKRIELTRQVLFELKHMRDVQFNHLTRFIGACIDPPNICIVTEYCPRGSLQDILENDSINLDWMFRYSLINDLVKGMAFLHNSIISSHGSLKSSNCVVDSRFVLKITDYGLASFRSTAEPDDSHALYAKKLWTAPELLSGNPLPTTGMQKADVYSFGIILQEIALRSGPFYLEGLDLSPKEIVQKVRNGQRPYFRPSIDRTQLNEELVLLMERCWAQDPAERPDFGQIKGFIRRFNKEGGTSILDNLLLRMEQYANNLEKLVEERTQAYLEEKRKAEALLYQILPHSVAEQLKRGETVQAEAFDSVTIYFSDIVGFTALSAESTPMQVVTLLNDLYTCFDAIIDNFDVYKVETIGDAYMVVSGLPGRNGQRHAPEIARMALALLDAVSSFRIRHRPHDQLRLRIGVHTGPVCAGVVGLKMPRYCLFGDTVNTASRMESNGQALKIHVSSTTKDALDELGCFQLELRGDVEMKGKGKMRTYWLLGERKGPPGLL
Assay: cell-based or functional assay

In the case of LQEHPNARKYKGANKKGLSKGCFGLKLDRIGSMSGLGC (disulfide 22-38) [CNP-38], the “Biopotency (%), F13, T0; cGMP stimulation in NPR-B overexpressing Hek293 cells, relative to CNP-38 reference standard” value is reported as 93%, the “Biopotency (%), F13, T3M, 5° C.; cGMP stimulation in NPR-B overexpressing Hek293 cells, relative to CNP-38 reference standard” value is reported as 107% and the “Biopotency (%), F13, T3M, 25° C.; cGMP stimulation in NPR-B overexpressing Hek293 cells, relative to CNP-38 reference standard” value is reported as 91%. The “Biopotency (%), F13, T3M, 30° C.; cGMP stimulation in NPR-B overexpressing Hek293 cells, relative to CNP-38 reference standard” value was 96%, the “Biopotency (%), F13, T3M, 40° C.; cGMP stimulation in NPR-B overexpressing Hek293 cells, relative to CNP-38 reference standard” value was 94% and the “Biopotency (%), F13, T6M 25° C.; cGMP stimulation in NPR-B overexpressing Hek293 cells, relative to CNP-38 reference standard” value was 106%. For the same binder, the “Biopotency (%), F13, T6M, 5° C.; cGMP stimulation in NPR-B overexpressing Hek293 cells, relative to CNP-38 reference standard” value was 95% and the “Biopotency (%), F13, T6M, 30° C.; cGMP stimulation in NPR-B overexpressing Hek293 cells, relative to CNP-38 reference standard” value was 89%.
